The numbers were not newly measured in patent publication US7101894B2 (priority 2001, dated 2006), which cites them from elsewhere.

In general, Ki refers to the dissociation constant of the complex between target and ligand, obtained from inhibition or displacement.

This series addresses CMV US28 (Human cytomegalovirus, UniProt P69332). As to conditions: binding of Fractalkine to US28.

Chain of CMV US28 (P69332 whole entry): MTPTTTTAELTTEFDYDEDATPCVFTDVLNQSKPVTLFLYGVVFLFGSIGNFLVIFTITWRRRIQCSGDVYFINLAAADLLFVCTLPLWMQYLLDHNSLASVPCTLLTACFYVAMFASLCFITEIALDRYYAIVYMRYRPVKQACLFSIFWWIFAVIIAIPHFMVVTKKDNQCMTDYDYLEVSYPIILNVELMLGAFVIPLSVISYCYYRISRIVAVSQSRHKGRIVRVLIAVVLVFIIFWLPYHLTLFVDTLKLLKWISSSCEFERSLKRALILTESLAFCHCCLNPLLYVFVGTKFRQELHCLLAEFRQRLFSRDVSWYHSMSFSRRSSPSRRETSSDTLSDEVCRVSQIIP

B1: Fractalkine: the CX3C chemokine, binds US28; used 125I-labeled as radioligand (protein, UniProt P78423 25-397, looked up)
Fractalkine: QHHGVTKCNITCSKMTSKIPVALLIHYQQNQASCGKRAIILETRQHRLFCADPKEQWVKDAMQHLDRQAAALTRNGGTFEKQIGEVKPRTTPAAGGMDESVVLEPEATGESSSLEPTPSSQEAQRALGTSPELPTGVTGSSGTRLPPTPKAQDGGPVGTELFRVPPVSTAATWQSSAPHQPGPSLWAEAKTSEAPSTQDPSTQASTASSPAPEENAPSEGQRVWGQGQSPRPENSLEREEMGPVPAHTDAFQDWGPGSMAHVSVVPVSSEGTPSREPVASGSWTPKAEEPIHATMDPQRLGVLITPVPDAQAATRRQAVGLLAFLGLLFCLGVAMFTYQSLQGCPRKMAGEMAEGLRYIPRSCGSNSYVLVPV
modifications: 125I label
notes: used 125I-labeled as radioligand
B1: the inhibition constant Ki is ~0.05 nM.
